Columns and labels:
[1] = biological target: RNA polymerase II (RNAPII) (Sus scrofa); experiment: EMSA; 0.1 uM RNAPII; RNAPII-only EC; EMSA: 20 mM Hepes-NaOH pH 7.5, 5 mM MgCl2, 5% glycerol (buffer J); final 75 mM NaCl, 50 mM KOAc, 0.33 uM Zn(OAc)2, 4 uM ZnCl2; 30 min at 4 C; native 3-8% Tris-acetate PAGE; settings: protein: native; tags: none; copies: 1;1;1;1;1;1;1;1;1;1;1;1; label: Alexa Fluor 647 on primer RNA; template DNA, nontemplate DNA and primer RNA
[2] = biological target: RNA polymerase II (RNAPII);DSIF (SPT4/SPT5);NELF wild type (NELF-A/B/C/E) (Sus scrofa;human;human, UniProt A0A8D1DPV6;A0A4X1TVZ5;P19387;O15514;A0A4X1VTX4;P61218;P62487;P52434;P36954;P6287 …, ||); experiment: EMSA; 0.1 uM RNAPII, 0.4 uM DSIF, 0.4 uM NELF; complete shift; EMSA: 20 mM Hepes-NaOH pH 7.5, 5 mM MgCl2, 5% glycerol (buffer J); final 75 mM NaCl, 50 mM KOAc, 0.33 uM Zn(OAc)2, 4 uM ZnCl2; 30 min at 4 C; native 3-8% Tris-acetate PAGE; settings: protein: native;recombinant;recombinant; tags: none;N-His SPT4 (His tag TEV-cleaved); C-Strep SPT5;NELF-C C-His6; NELF-E N-FLAG; copies: 1;1;1;1;1;1;1;1;1;1;1;1;1;1;1;1;1;1; label: Alexa Fluor 647 on primer RNA; template DNA, nontemplate DNA and primer RNA
[3] = biological target: RNA polymerase II (RNAPII);DSIF (SPT4/SPT5) (Sus scrofa;human, UniProt A0A8D1DPV6;A0A4X1TVZ5;P19387;O15514;A0A4X1VTX4;P61218;P62487;P52434;P36954;P6287 …, |); experiment: EMSA; 0.1 uM RNAPII, 0.4 uM DSIF; lower mobility than RNAPII-only EC; EMSA: 20 mM Hepes-NaOH pH 7.5, 5 mM MgCl2, 5% glycerol (buffer J); final 75 mM NaCl, 50 mM KOAc, 0.33 uM Zn(OAc)2, 4 uM ZnCl2; 30 min at 4 C; native 3-8% Tris-acetate PAGE; settings: protein: native;recombinant; tags: none;N-His SPT4 (His tag TEV-cleaved); C-Strep SPT5; copies: 1;1;1;1;1;1;1;1;1;1;1;1;1;1; label: Alexa Fluor 647 on primer RNA; template DNA, nontemplate DNA and primer RNA
[4] = biological target: RNA polymerase II (RNAPII);DSIF (SPT4/SPT5);NELF 3E mutant (Sus scrofa;human;human, UniProt A0A8D1DPV6;A0A4X1TVZ5;P19387;O15514;A0A4X1VTX4;P61218;P62487;P52434;P36954;P6287 …, ||K23E;K27E;K34E); experiment: EMSA; 0.1 uM RNAPII, 0.4 uM DSIF, 0.4 uM NELF 3E; complex forms similar to wild type; EMSA: 20 mM Hepes-NaOH pH 7.5, 5 mM MgCl2, 5% glycerol (buffer J); final 75 mM NaCl, 50 mM KOAc, 0.33 uM Zn(OAc)2, 4 uM ZnCl2; 30 min at 4 C; native 3-8% Tris-acetate PAGE; settings: protein: native;recombinant;recombinant; tags: none;N-His SPT4 (His tag TEV-cleaved); C-Strep SPT5;NELF-C C-His6; NELF-E N-FLAG; copies: 1;1;1;1;1;1;1;1;1;1;1;1;1;1;1;1;1;1; label: Alexa Fluor 647 on primer RNA; template DNA, nontemplate DNA and primer RNA

Measured: binding result

B1: DNA/RNA scaffold (EMSA) (mixed)
RNA: UUUUUAUCGAGAGGUAC
DNA 1: CCAAGATGTCAACTCTACCGATAAGCAGACGTACCTCTCGAT
DNA 2: CTGCTTATCGGTAGAGTTGACATCTTGG
binds: all assays above

Reference: publication PMC11881899, “Structural insights into promoter-proximal pausing of RNA polymerase II at +1 nucleosome”
